Data on 18 molecules can be found in patent US20180118848A1 (Regeneron, published 2018).

For assay [1], the target named is T1, human MUC16 (mucin 16) (human).
T1 construct: Endogenously expressed on human tumour cell lines; also called hMUC16
Description: MSD ECL cell binding, RLU ratio OVCAR-3 vs SK-OV-3, 1.9 nM Ab. Here is the method:
(§1) The ability of anti-MUC16 antibodies to bind specifically to endogenously expressing MUC16 on the human ovarian carcinoma cell line (OVCAR-3) was evaluated via an electrochemiluminescence based detection assay (Meso Scale Discovery (MSD), Rockville, Md.). […] Detached cells were then washed once in 1×PBS supplemented with Ca²⁺/Mg²⁺ and counted (Cellometer Auto T4 cell counter, Nexcelom Bioscience, Lawrence, Mass.). Approximately 1.0×10⁴ cells were plated in MULTI-ARRAY 96-well carbon electrode plates (MSD) and incubated for 1 h at 37° C. […] Next, serial dilutions of anti-MUC16 or control antibodies (0.85 pM-50 nM) and no-antibody buffer controls were added to the plate-bound cells and incubated for 1 h at room temperature (RT). Plates were then washed to remove the unbound antibodies using an AquaMax2000 plate washer (MDS Analytical Technologies, Sunnyvale, Calif.). Plate-bound antibodies were detected with a SULFO-TAG™-conjugated anti-human kappa light chain antibody (Regeneron) or a SULFO-TAG™-conjugated anti-mouse IgG antibody (Jackson Immunoresearch, West Grove, Pa.) for 1 h at RT. Post-wash, plates were developed with Read Buffer (MSD) according to manufacturer's protocol and luminescent signals were recorded with a SECTOR Imager 6000 (MSD) instrument.
(§2) Luminescence intensity, measured in relative light units (RLU), for the two cell lines was recorded to indicate the binding intensity of each antibody.

The target of assay [2] is T1, human MUC16 (mucin 16). Description: MSD ECL cell binding, RLU ratio OVCAR-3 vs SK-OV-3, 16.7 nM Ab. As to the method: as §1, §2

B1: H2M7135N (antibody, mouse IgG2, V domains shown)
VH: EVQLVESGGGLVQAGGSLRLSCAASGFTFSYHEMNWVRQAPGKGLEWVSYIGSRGTTKHYADPVKGRFTISRDNAKNSLYLQMNSLRAEDTAVYYCASEVGSILGYSMDVWGQGTTVTVSS
VL: DIQMTQSPSSLSASVGDRVTITCRASQSVSRYLNWCQQKPGKAPKLLTYAASSLQSGVPSRFSGSGSGTDFTLTISSLQPEDFAAYFCQQSYSTPPITFGQGTRLEIK
notes: Human variable regions, mouse IgG2 constant region
Regarding B1, the “Ratio anti-MUC16 Binding OVCAR-3/SK-OV-3” value in assay [1] turned out to be 30 ratio; in assay [2], 5 ratio.

B2: H1H8770P (antibody, human IgG1, V domains shown)
VH: QVQLVESGGGVVQPGRSLRLSCAASGFTFSDHGMHWVRQAPGKGLEWVAVISYHGSNKHYADSVKGRFTISRDNSKNALYLQMNSLRPEDTAMYYCAKDGYDFWNGYSLFDYWGQGTLVTVSS
VL: DIQMTQSPSSLSASVGDRVTITCRASQSISNYLNWYQQKPGKAPKLLIYTASNLLSGVPSRFSGSGSGTDFTLTISSLQPEDFATYYCQQSYSTPPITFGQGTKLEIK
notes: Human IgG1
As to B2, the “Ratio anti-MUC16 Binding OVCAR-3/SK-OV-3” value in assay [1] came out at 9 ratio; in assay [2], 3 ratio.

B3: H1H8783P (antibody, human IgG1, V domains shown)
VH: QVQLVESGGGVVQPGRSLRLSCAASGFTFSDHAMHWVRQAPGKGLEWVAVISYHGTDKQYGDSVKGRFTISRDNSKNALYLQMNSLRPEDTAMYYCAKDGYDFWNAYSLFDYWGQGTLVTVSS
VL: DIQMTQSPSSLSASVGDRVTITCRASQSISNYLNWYQQKPGKAPKLLIYTASSLLSGVPSRFSGSGSGTDFTLTISSLQPEDFATYYCQQSYSTPPITFGQGTRLEIK
notes: Human IgG1
On to B3, for which the “Ratio anti-MUC16 Binding OVCAR-3/SK-OV-3” value in assay [1] was 11 ratio; in assay [2], 4 ratio.

B4: H1H8755P (antibody, human IgG1, V domains shown)
VH: EVQLVESGGGLVQPGRSLRLSCAASGFTFNDYAMHWVRQSPGKGLEWVSGIDWNGGSIDYADSVKGRFTISRDTAKNSLYLQMNSLKVEDTALYYCAKDIGHWNYIGGMDVWGQGTTVTVSS
VL: DIQMTQSPSSLSASVGDRVTITCRASQSINIYLNWYQQKPGKAPKFLIYAASSLQTGVPSRFSGSGSGTDFTLTISSLEPEDFATYYCQHSYSTPPITFGQGTRLEIK
notes: Human IgG1 (H1H: hIgG1)
For B4, the “Ratio anti-MUC16 Binding OVCAR-3/SK-OV-3” value in assay [1] is 13 ratio; in assay [2], 5 ratio.

B5: H1H8794P (antibody, V domains shown)
VH: QVQLVESGGGLVKPGGSLRLSCAASGFTFRDYSMSWIRQAPGKGLEWVSYVTFFNSAIYYADSVKGRFTISRDNAKNSLYLQMNSLRAEDTAVYYCAREREPIVGGFDYWGQGTLVTVSS
VL: DIQMTQSPSSLSASVGDRVTITCRASQSINSYLNWYQQKPGKAPKLLIYAASSLQGGVPSRFSGGGSGTDFTLTITSLQPEDFATFYCQQSYSSPPITFGQGTRLEIK
notes: Human IgG1
For B5, the “Ratio anti-MUC16 Binding OVCAR-3/SK-OV-3” value in assay [1] was 8 ratio; in assay [2] it was 3 ratio.

B6: H3M9524N (antibody, mouse IgG3, V domains shown)
VH: QVQLQQWGAGLLKPSETLSLTCAVYGGSFSDYYWSWIRQPPGKGLEWIGEINHRGKTNYNPSLKSRVSISVDPSKNQFSLKLSSVTAADTAVYYCARQGWNYAIFDYWGQGILVPVSS
VL: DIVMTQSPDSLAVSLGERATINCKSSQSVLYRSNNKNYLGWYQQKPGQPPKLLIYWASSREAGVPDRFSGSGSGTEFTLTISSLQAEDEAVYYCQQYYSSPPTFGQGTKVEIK
notes: Human variable regions, mouse IgG3 constant region
With B6, the “Ratio anti-MUC16 Binding OVCAR-3/SK-OV-3” value stood at 81 ratio in assay [1] and 57 ratio in assay [2].

B7: H1H9524N (antibody, human IgG1, V domains shown)
VH: QVQLQQWGAGLLKPSETLSLTCAVYGGSFSDYYWSWIRQPPGKGLEWIGEINHRGKTNYNPSLKSRVSISVDPSKNQFSLKLSSVTAADTAVYYCARQGWNYAIFDYWGQGILVPVSS
VL: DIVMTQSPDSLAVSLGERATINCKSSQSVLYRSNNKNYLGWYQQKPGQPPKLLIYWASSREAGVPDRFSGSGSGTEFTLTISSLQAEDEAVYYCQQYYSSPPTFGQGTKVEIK
notes: Human IgG1 form of H3M9524N
Take B7: the “Ratio anti-MUC16 Binding OVCAR-3/SK-OV-3” value was found to be 20 ratio in assay [1] and 48 ratio in assay [2].

B8: H3M9525N (antibody, mouse IgG3, V domains shown)
VH: QVQLQQWGAGLLKPSETLSLTCAVYGGSFSGYYWSWIRQPPGKGLEWIGEINHSGKTTYSPSLKSRVTISVDTSKSQFSLKLSSVTAADTAVYYCARQGLNYAIFDYWGQGTLVTVSS
VL: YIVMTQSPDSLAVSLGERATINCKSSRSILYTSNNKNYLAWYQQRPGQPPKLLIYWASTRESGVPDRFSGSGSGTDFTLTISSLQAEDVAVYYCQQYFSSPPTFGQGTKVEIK
notes: as for B6
With B8, the figures for the “Ratio anti-MUC16 Binding OVCAR-3/SK-OV-3” value in assay [1] and in assay [2] were 137 ratio and 51 ratio, respectively.

B9: H1H9525N (antibody, human IgG1, V domains shown)
VH: QVQLQQWGAGLLKPSETLSLTCAVYGGSFSGYYWSWIRQPPGKGLEWIGEINHSGKTTYSPSLKSRVTISVDTSKSQFSLKLSSVTAADTAVYYCARQGLNYAIFDYWGQGTLVTVSS
VL: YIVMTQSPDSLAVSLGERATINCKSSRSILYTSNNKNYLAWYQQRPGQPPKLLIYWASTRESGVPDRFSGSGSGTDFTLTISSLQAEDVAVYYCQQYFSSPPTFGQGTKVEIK
notes: Human IgG1 form of H3M9525N
In the case of B9, the entries for the “Ratio anti-MUC16 Binding OVCAR-3/SK-OV-3” value in assay [1] and in assay [2] were 4 ratio and 21 ratio, respectively.

B10: H1M9528N (antibody, mouse IgG1, V domains shown)
VH: QMQLQESGPGLVKPSETLSLTCTVSGGSISSYYWNWIRQPPGKGLEWIGYIYYSGNNFNPSLKSRVTISVDTSKNQFSLKLSSVTAADTAVYYCARAFHWNYEFDYWGQGTLVTVSS
VL: EIVLTQSPGTLSLSPGERATLSCRASQSVSNNYLAWYQQKPGQAPRLLLYGASSRTTDIPDRFSGSGSGTDFTLTISRLEPEDFAVYYCQQYDNSPLTFGGGTKVEIR
notes: Human variable regions, mouse IgG1 constant region
On to B10, for which the “Ratio anti-MUC16 Binding OVCAR-3/SK-OV-3” value turned out to be 153 ratio in assay [1] and 120 ratio in assay [2].

B11: H1H9528N (antibody, human IgG1, V domains shown)
VH: QMQLQESGPGLVKPSETLSLTCTVSGGSISSYYWNWIRQPPGKGLEWIGYIYYSGNNFNPSLKSRVTISVDTSKNQFSLKLSSVTAADTAVYYCARAFHWNYEFDYWGQGTLVTVSS
VL: EIVLTQSPGTLSLSPGERATLSCRASQSVSNNYLAWYQQKPGQAPRLLLYGASSRTTDIPDRFSGSGSGTDFTLTISRLEPEDFAVYYCQQYDNSPLTFGGGTKVEIR
notes: Human IgG1 form of H1M9528N
For the molecule B11, the “Ratio anti-MUC16 Binding OVCAR-3/SK-OV-3” value in assay [1] came to 41 ratio; in assay [2], 18 ratio.

B12: H2M7138N (antibody, mouse IgG2, V domains shown)
VH: QVQLVQSGAEVKKPGASVKVSCKASGYTFTSSDINWVRQATGQGLEWVGWMNPNYGYTGSARKFQDRVTMTRNTSLSTAYLELHSLRSEDTAVYYCARVTYCSSVTSCFRPFTYWGQGTLVTVSA
VL: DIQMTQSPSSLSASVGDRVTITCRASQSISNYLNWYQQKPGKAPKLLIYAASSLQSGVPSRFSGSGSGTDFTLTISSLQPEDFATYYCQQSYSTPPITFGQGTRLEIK
notes: Human variable regions, mouse IgG2 constant region; also called H2aM7138N
B12: the entries for the “Ratio anti-MUC16 Binding OVCAR-3/SK-OV-3” value in assay [1] and in assay [2] were 82 ratio and 50 ratio, respectively.

B13: H1H8790P (antibody, human IgG1, V domains shown)
VH: EVQLVESGGGLVQPGGSLRLSCEASGFTFSNYAMSWVRQAPGKGLEWVSGMSGSGTYPYYADSVKGRFTISRDNSKNMLYLQMNSLRVKDTAVYYCAKDGVDTAMILDTFDLWGQGTMVTVSS
VL: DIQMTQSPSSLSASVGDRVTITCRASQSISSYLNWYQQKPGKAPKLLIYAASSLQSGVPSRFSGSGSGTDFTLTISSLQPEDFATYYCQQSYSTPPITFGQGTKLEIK
notes: Human IgG1
Take B13: the “Ratio anti-MUC16 Binding OVCAR-3/SK-OV-3” value in assay [1] was 8 ratio; in assay [2], 3 ratio.

B14: H3M9529N (antibody, mouse IgG3, V domains shown)
VH: QVQLQQWGAGLLKPSETLSLTCAVYGGSFSGFYWSWIRQPPGKGLEWIGEINHSGSAKYNPSLKNRVIISIDTSKNQFSLKLDSVTAADTAVYNCARQGWNFAIFDYWGQGTLVDVSS
VL: DIVMTQSPDSLAVSLGGRATINCKSSQSVLHSSYNKDHLAWYQQRPGQPPKLLIYWASTRESGVPDRFSGSGSGTDFTLTISSLQAEDVAVYYCQQYNILPPTFGQGTRVEIK
notes: as for B6
As to B14, the “Ratio anti-MUC16 Binding OVCAR-3/SK-OV-3” value in assay [1] was 143 ratio; in assay [2] it was 99 ratio.

B15: H1H9529N (antibody, human IgG1, V domains shown)
VH: QVQLQQWGAGLLKPSETLSLTCAVYGGSFSGFYWSWIRQPPGKGLEWIGEINHSGSAKYNPSLKNRVIISIDTSKNQFSLKLDSVTAADTAVYNCARQGWNFAIFDYWGQGTLVDVSS
VL: DIVMTQSPDSLAVSLGGRATINCKSSQSVLHSSYNKDHLAWYQQRPGQPPKLLIYWASTRESGVPDRFSGSGSGTDFTLTISSLQAEDVAVYYCQQYNILPPTFGQGTRVEIK
notes: Human IgG1 form of H3M9529N
B15: the “Ratio anti-MUC16 Binding OVCAR-3/SK-OV-3” value in assay [1] came out at 109 ratio; in assay [2], 74 ratio.

B16: H1M7137N (antibody, mouse IgG1, V domains shown)
VH: QVQLQESGPGLVKPSETLSLTCTVSGGAINTYYWSWIRQPPGKGLEWIGYIYYRGNTNYNPSLRSRVTISVDTSKNQFFLKLRSVTVADSAVYFCARGWNYRAEYFQHWGQGTVVTVSS
VL: not shown
notes: as for B10
As to B16, the “Ratio anti-MUC16 Binding OVCAR-3/SK-OV-3” value in assay [1] was 77 ratio; in assay [2], 29 ratio.

B17: H2M9538N (antibody, V domains shown)
VH: QVQLQESGPGLVKPSETLSLTCTVSGGSISSYYWSWIRQPPGKGLEWIGYIYYSGSTNYNPSLKSRVTISVDTSKNQFSLKLSSVTAADTAVYYCARKKLVFDYWGQGTLVTVSS
VL: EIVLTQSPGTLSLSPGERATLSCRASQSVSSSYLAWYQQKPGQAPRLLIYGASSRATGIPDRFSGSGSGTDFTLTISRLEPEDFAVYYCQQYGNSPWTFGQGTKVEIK
As to B17, the results for the “Ratio anti-MUC16 Binding OVCAR-3/SK-OV-3” value in assay [1] and in assay [2] were 89 ratio and 26 ratio, respectively.

B18: H1H9538N (antibody, V domains shown)
VH: QVQLQESGPGLVKPSETLSLTCTVSGGSISSYYWSWIRQPPGKGLEWIGYIYYSGSTNYNPSLKSRVTISVDTSKNQFSLKLSSVTAADTAVYYCARKKLVFDYWGQGTLVTVSS
VL: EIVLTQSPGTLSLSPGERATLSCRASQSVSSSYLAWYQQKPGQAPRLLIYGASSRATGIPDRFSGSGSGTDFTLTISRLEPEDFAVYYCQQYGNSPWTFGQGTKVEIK
Consider B18, for which the “Ratio anti-MUC16 Binding OVCAR-3/SK-OV-3” value in assay [1] worked out at 12 ratio; in assay [2] it was 13 ratio.
